Numbering of substitutions follows the chain as printed. Names may count otherwise. “Also recorded” adds a separate entry of the source.
B1: L567V TARS: BC194-resistant (borrelidin-resistant) L567V mutant of human TARS (protein, UniProt P26639 1-723, looked up, variant L567V)
Threonine--tRNA ligase 1, …: MFEEKASSPSGKMGGEEKPIGAGEEKQKEGGKKKNKEGSGDGGRAELNPWPEYIYTRLEMYNILKAEHDSILAEKAEKDSKPIKVTLPDGKQVDAESWKTTPYQIACGISQGLADNTVIAKVNNVVWDLDRPLEEDCTLELLKFEDEEAQAVYWHSSAHIMGEAMERVYGGCLCYGPPIENGFYYDMYLEEGGVSSNDFSSLEALCKKIIKEKQAFERLEVKKETLLAMFKYNKFKCRILNEKVNTPTTTVYRCGPLIDLCRGPHVRHTGKIKALKIHKNSSTYWEGKADMETLQRIYGISFPDPKMLKEWEKFQEEAKNRDHRKIGRDQELYFFHELSPGSCFFLPKGAYIYNALIEFIRSEYRKRGFQEVVTPNIFNSRLWMTSGHWQHYSENMFSFEVEKELFALKPMNCPGHCLMFDHRPRSWRELPLRLADFGVLHRNELSGALTGLTRVRRFQQDDAHIFCAMEQIEDEIKGCLDFLRTVYSVFGFSFKLNLSTRPEKFLGDIEVWDQAEKQLENSLNEFGEKWELNSGDGAFYGPKIDIQIKDAIGRYHQCATIQLDFQVPIRFNLTYVSHDGDDKKRPVIVHRAILGSVERMIAILTENYGGKWPFWLSPRQVMVVPVGPTCDEYAQKVRQQFHDAKFMADIDLDPGCTLNKKIRNAQLAQYNFILVVGEKEKISGTVNIRTRDNKVHGERTISETIERLQQLKEFRSKQAEEEF
B2: R442A TARS: aminoacylation-deficient mutant of hTARS, active site Arg442 substituted with alanine (protein, UniProt P26639 1-723, looked up, variant R442A)
Threonine--tRNA ligase 1, …: B1 Threonine--tRNA ligase 1, … with R442A, V567L
B3: E. coli ThrRS: bacterial (E. coli) threonyl-tRNA synthetase (protein, UniProt P0A8M3 1-642, looked up)
Threonine--tRNA ligase: MPVITLPDGSQRHYDHAVSPMDVALDIGPGLAKACIAGRVNGELVDACDLIENDAQLSIITAKDEEGLEIIRHSCAHLLGHAIKQLWPHTKMAIGPVIDNGFYYDVDLDRTLTQEDVEALEKRMHELAEKNYDVIKKKVSWHEARETFANRGESYKVSILDENIAHDDKPGLYFHEEYVDMCRGPHVPNMRFCHHFKLMKTAGAYWRGDSNNKMLQRIYGTAWADKKALNAYLQRLEEAAKRDHRKIGKQLDLYHMQEEAPGMVFWHNDGWTIFRELEVFVRSKLKEYQYQEVKGPFMMDRVLWEKTGHWDNYKDAMFTTSSENREYCIKPMNCPGHVQIFNQGLKSYRDLPLRMAEFGSCHRNEPSGSLHGLMRVRGFTQDDAHIFCTEEQIRDEVNGCIRLVYDMYSTFGFEKIVVKLSTRPEKRIGSDEMWDRAEADLAVALEENNIPFEYQLGEGAFYGPKIEFTLYDCLDRAWQCGTVQLDFSLPSRLSASYVGEDNERKVPVMIHRAILGSMERFIGILTEEFAGFFPTWLAPVQVVIMNITDSQSEYVNELTQKLSNAGIRVKADLRNEKIGFKIREHTLRRVPYMLVCGDKEVESGKVAVRTRRGKDLGSMDVNEVIEKLQQEIRSRSLKQLEE

Assays:
HUVECs = assay: Quantitative RT-PCR of TARS mRNA; type: cell-based, human; settings: HUVECs exposed to 50 ng/ml VEGF or TNF-α
Experimental: Quantitative RT-PCR—Total RNA was extracted from cells using the RNeasy column protocol and cDNA was generated using an Omniscript reverse transcriptase assay according to the manufacturer's instructions (Qiagen, Frederick, Md.). Primers and probes for TARS and β2-microglobulin were Assays-on-Demand (Applied Biosystems, [Life Technologies, Carlsbad, Calif.]). RT-qPCR was performed using an ABI prism 7700 Sequence Detection System (Applied Biosystems). The relative quantity of mRNA level was determined using the comparative CT (ΔΔCT) method using β2-microglobulin to normalize mRNA level (Cassavaugh, Hale et al. 2011).

human TARS [1] = assay: Steady state aminoacylation assay; type: biochemical; settings: purified protein
Experimental: Steady State Aminoacylation Assay-The aminoacylation activities of the TARS constructs were determined using modifications to established procedures ([…] et al 2008). Briefly, reaction mixtures consisted of 20 mM Tris-HCl pH 8.0, 100 mM KCl, 10 mM MgCl2, 1 mM dithiothreitol, 2 mM ATP, 2.5 U pyrophosphatase (Roche), 80 μM threonine, 20 μM [14C]-threonine, and 5 μM of E. coli or human […]. Reactions were initiated with the addition of 0.25-0.75 μM TARS and run at 37° C. Aliquots were taken at varying time points and spotted onto Whatmann 3MM paper filters pre-soaked in 5% trichloroacetic acid (TCA). Upon completion, the filters were washed 3 times in excess TCA, once in 95% ethanol, and dried under a heating lamp. The formation of […] was detected by scintillation counter and the activity determined by linear regression of […] formed per active site per unit time.

[2] = system: chorioallantoic membrane (CAM); assay: Chick chorioallantoic membrane (CAM) assay; type: in vivo, chicken; settings: for vessel formation / vascularization on the CAM after applied protein: purified protein applied daily to sponge, scored over 72 h
Experimental: Chick Chorioallantoic Membrane Assay-Fertilized chicken eggs (Sunrise Farms, Catskill, N.Y.) day 1-2 post-laying were incubated in a humidified incubator at 37° C. for 72 h. Cleaned eggs were cracked and plated in a sterile 10 cm^2 tissue culture-treated dish and incubated at 37° C. for another 7 days. On developmental day 10, 1 mm^3 sterile gelatin sponge pieces (Surgifoam®; Johnson & Johnson Wound Management, Somerville, N.J.) were placed within the outer one-third of the membrane between large vessels. 40 μg/ml human bFGF and 2 μg/mL human VEGF were used as pro-angiogenic control compounds; 100 μg/mL retinoic acid (Sigma-Aldrich, St. Louis, Mo.) diluted in phosphate-buffered saline (PBS) was used as an angiostatic control. All compounds were applied in 10 μl to the CAM every 24 h for 72 h. Images were taken using a Leica MZ6 stereomicroscope every 24 h. Compounds were scored according to a modified version of Intensity Scoring as previously described (Ribatti, Nico et al. 2006). Briefly, each experimental condition was given a blinded score from 0-5 based on the change in the extent of vessel convergence and formation in proximity to the sponge from day 0 to day 3. Total score is averaged individual experimental condition scores from at least 15 replicates.
Fertilized chicken embryos were cultured ex-ova and, starting at developmental day 10, agents were applied daily to gelfoam sponges on the CAM. Images were recorded daily over 72 h and scored blindly according to a modified version Intensity Scoring as previously described (Ribatti, Nico et al. 2006). Additional details regarding methods are provided in the Methods and Materials section of Example 1.

human TARS [3] = assay: GTPase assay (GTP hydrolysis); type: biochemical; settings: 2 mM GTP
human TARS [4] = assay: Ap4G formation assay; type: biochemical; settings: 2 mM ATP, 2 mM threonine, 2 mM GTP
human TARS [5] = assay: Ap4A formation assay; type: biochemical; settings: 5 μM enzyme, 2 mM threonine, 2 mM ATP
Experimental: TARS purification and active site determination were performed as previously described (Williams, Mirando et al., 2013). TARS non-canonical catalytic activities were characterized using modifications from published methods (Guo, Chong et al. 2009). For Ap4A reactions 5 μM of wildtype TARS or R442A TARS were incubated for 10 minutes on ice with 2 mM threonine, and 10 μM BC194 or borrelidin as indicated in FIG. 17C. Reactions were initiated using 2 mM ATP with trace amounts of [α-^32P]-ATP as label. At specific time points aliquots were quenched in 3 volumes of 0.1% SDS, 400 mM sodium acetate and resolved on polyethyleneimine-cellulose plates by thin-layer chromatography (TLC) in 3 M NH4 (SO4)2 and 2% EDTA. Radioactive counts were identified by phosphorimaging and products quantified as fractions of total ATP added. The quantitation of product was normalized to take into account the fact that each Ap4A molecule has two equivalents of radioactive phosphorus.

Row | Molecule | TARS mRNA / transcription (HUVECs) | aminoacylation activity of the protein (human TARS [1]) | sensitivity of protein-stimulated CAM vessel formation to BC194 ([2]; protein applied together with BC194) | vessel formation / vascularization on the CAM after applied protein [2] | GTP hydrolysis (human TARS [3]) | rate of Ap4G formation (human TARS [4]) | production of Ap4A (human TARS [5])
1 | TNF-α | neither VEGF nor TNF-α induced an increase; also recorded: do not induce TARS transcription | – | – | – | – | – | –
2 | VEGF | neither VEGF nor TNF-α induced an increase; also recorded: do not induce TARS transcription | – | – | – | – | – | –
3 | B1 | – | activity is not compromised | not inhibited by application of BC194 | stimulated vessel formation | – | – | –
4 | B2 | – | essentially no aminoacylation activity; also recorded: virtually negligible aminoacylation function | – | virtually indistinguishable from wild type | 0.2137 GDP/active site/min | not catalyzed; also recorded: blocked | no appreciable activity; also recorded: blocked
5 | B3 | – | – | – | – | not | 0.5612 Ap4G/active site/min | 0.5612 Ap4A/active site/min

Reference: patent US11225653B2, “Methods and compounds for reducing threonyl-tRNA synthetase activity” (University of Vermont and State Agricultural College, priority 2012, dated 2022)
